# Assay results as given in patent publication US20050181479A1 (AstraZeneca / MedImmune, published 2005).
# Substitutions are numbered along the chain they refer to.
# B1: G5 Fab (Fab, V domains shown)
# VH: QMQLVQSGPEVKKPGTSVKVSCKASGFTFTDYSMNWVRQARGQRLEWIGFIRNKANDYTTEYSASVKGRVTITRDMSTSTAYMELSSLRSEDTAVYYCARYPRYHAMDSWGQGTSVTVSS
# VL: DIQMTQSPSSLSASVGDRVTITCRASQSISNNLHWYQQKPGKAPKLLIKYVFQSISGVPSRFSGSGSGTDFTFTISSLQPEDFATYYCQQSNSWPLTFGGGTKVEIK
# notes: Fab expressed in E. coli TG1 from an M13-based phage vector and tested as unpurified supernatant, periplasmic extract or whole cell extract; They are kept as one molecule, since the leader is not part of the mature Fab; also called mAb G5; anti-EphA2 Fab
# B2: 12G3 Fab (Fab, V domains shown)
# VH: B1 VH with T30D, Y104H
# VL: B1 VL with V51A, S91A
# notes: Fab expressed in E. coli TG1 from an M13-based phage vector and tested as unpurified supernatant, periplasmic extract or whole cell extract; They are kept as one molecule, since the leader is not part of the mature Fab; also called mAb12G3; anti-EphA2 Fab
# Target: T1, human EphA2-Fc (human, UniProt P29317 25-534, limits assumed, biotinylated in the capture ELISA (sites not given))
# T1 construct: also called biotinylated human EphA2-Fc; human receptor tyrosine kinase EphA2; not shown: Fc portion; species, isotype and any linker are not described
# T1 sequence (P29317 25-534 limits assumed): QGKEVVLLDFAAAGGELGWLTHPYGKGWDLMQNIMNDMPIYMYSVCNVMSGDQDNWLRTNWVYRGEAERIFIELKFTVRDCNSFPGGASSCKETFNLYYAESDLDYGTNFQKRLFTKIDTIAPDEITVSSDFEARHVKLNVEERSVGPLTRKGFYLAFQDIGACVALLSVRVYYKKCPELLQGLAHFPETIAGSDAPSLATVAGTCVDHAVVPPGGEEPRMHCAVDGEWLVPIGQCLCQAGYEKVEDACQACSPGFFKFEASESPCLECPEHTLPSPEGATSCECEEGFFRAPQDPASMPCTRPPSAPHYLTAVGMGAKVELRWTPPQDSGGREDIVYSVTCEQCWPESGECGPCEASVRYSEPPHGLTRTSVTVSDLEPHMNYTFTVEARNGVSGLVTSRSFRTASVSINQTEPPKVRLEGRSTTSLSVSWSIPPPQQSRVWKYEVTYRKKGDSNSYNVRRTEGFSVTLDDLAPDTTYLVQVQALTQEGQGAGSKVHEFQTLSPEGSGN
# Assay: EphA2-specific capture ELISA: Fab from E. coli samples captured on anti-human Fab or anti-Fd, detected with biotinylated human EphA2-Fc
# Description: Capture ELISA: An EphA2-specific capture ELISA was carried out as follows: briefly, individual wells of a 96-well Maxisorp Immunoplate were coated with 20 or 2000 ng of a goat anti-human Fab antibody (Cappel, Calif.) or of a sheep anti-human Fd (BioDesign, ME), blocked with 3% BSA/PBS for 2 h at 37° C. and then incubated with 75 μl of the various samples (supernatants, periplasmic extracts and whole cell extracts of G5 Fab, 12G3 Fab, irrelevant Fab and variants thereof) for 2 hours at room temperature. 300 ng/well of biotinylated human EphA2-Fc was then added for 1.5 hours at room temperature. This was followed by incubation with a neutravidin-horseradish peroxidase (HRP) conjugate for 40 min at room temperature. HRP activity was detected with tetra methyl benzidine (TMB) substrate and the reaction quenched with 0.2 M H₂SO₄. Plates were read at 450 nm.
row,Binder,binding result
1,B1,binds
2,B2,binds
